Data from patent publication US20180049457A1, “ENZYMATIC SYNTHESIS OF SOLUBLE GLUCAN FIBER” (E I DU PONT DE NEMOURS AND COMPANY, priority 2014, published 2018).

B1: GTF4991T2: T2 C-terminal truncation of GTF4991, SEQ ID NO: 150, strain SG1311 (protein)
chain: INGKQYYVNSDGSVRKNFVFEQDGKSYYFDAETGALATKSQDEFSTEPIKATVDFSSGNQLYKNDDKSLDQLDTFITADAWYRPKSILKDGKTWTASTEADKRPLLMVWWPDKSTQVNYLNYMQNQGLGAGSFSTNSSQESLDQAAKAVQTKIEERIAREGNTNWLRTSIDQFIKTQPGWNSSTENSSYDHLQGGQLLFNNSKGDTGNRTSHANSDYRLLNRTPTNQTGTRKYFKDNSIGGLEFLLANDIDNSNPAVQAEQLNWLHFMMNIGSIMANDPTANFDGLRVDALDNVDADLLQIASDYFKAAYGVDKSEANAIKHLSYLEAWSANDPYYNKDTKGAQLPIDNALRNALTNLLMRDKNTRMQLGDMTAFINSSLNPRGANDKNGERMANYIFTRAHDTEAQTIIQRIIRDRINPNLFGYNFTRDEIKKAFEIYNEDIDKAHKTYASYNLPSVYALMLTNKDSVTRVYYGDLYREDGHYMAKKTPYFDAIDTLLRARIKYVAGGQDMEVKKVGNDGLLTSVRYGKGANNRTDLGTSETRTQGMGVIMTNNYDFRLGSNETVTMNMGRAHRNQLYRPLLLTTKDGIATYLNDSDVPKNLLKRTDWNGNLTFNANDVFGVENVQVSGYLGVWVPYGAKANQDARTQPSNRANSDGQVYKSSAALDSQVMYEAFSNFQAFADDQPELYMNRVLAKNTDLLKAWGITSVGLPPQYVSSKDGTFLDSIIDNGYAFDDRYDMALSQNNKYGSLEDLLNVLRALHKDGIQAIADWVPDQIYNLPGKEVVNATRVNGYGYHQQGYQIVDQAYVANTRTDGTDYQGKYGGAFLDELKAKYPSIFNRVQISNGKQLPTNEKITKWSAKYFNGTNILGRGINFVLRDDKTNQYFNTSANSQLLPTPLRDTGAITSTQVFQRRGQDVYFLRDNQTVKNEFVQDGNGNWYYFGGDG
modifications: T2 C-terminal truncation of GTF4491
B2: GTF4336T6: T6 C-terminal truncation of GTF4336, SEQ ID NO: 146, strain SG1309 (protein)
chain: INGKQYYVNSDGSVRKNFVFEQDGKSYYFDAETGALATKSQDEFSTEPIKATVDFSSGNQLYKNDDKSLDQLDTFITADAWYRPKSILKDGKTWTASTEADKRPLLMVWWPDKSTQVNYLNYMQNQGLGAGSFSTNSSQESLDQAAKAVQTKIEERIAREGNTNWLRTSIDQFIKTQPGWNSSTENSSYDHLQGGQLLFNNSKGDTGNRTSHANSDYRLLNRTPTNQTGTRKYFKDNSIGGLEFLLANDIDNSNPAVQAEQLNWLHFMMNIGSIMANDPTANFDGLRVDALDNVDADLLQIASDYFKAAYGVDKSEANAIKHLSYLEAWSANDPYYNKDTKGAQLPIDNALRNALTNLLMRDKNTRMQLGDMTAFINSSLNPRGANDKNGERMANYIFTRAHDTEAQTIIQRIIRDRINPNLFGYNFTRDEIKKAFEIYNEDIDKAHKTYASYNLPSVYALMLTNKDSVTRVYYGDLYREDGHYMAKKTPYFDAIDTLLRARIKYVAGGQDMEVKKVGNDGLLTSVRYGKGANNRTDLGTSETRTQGMGVIMTNNYDFRLGSNETVTMNMGRAHRNQLYRPLLLTTKDGIATYFNDSDVPKNLLKRTDWNGNLTFNANDVFGVENVQVSGYLGVWVPVGAKANQDARTQPSNRANSDGQVYKSSAALDSQVMYEAFSNFQAFADDQPELYMNRVLAKNTDLLKAWGVTSVGLPPQYVSSKDGTFLDSTIDNGYAFDDRYDMALSQNNKYGSLEDLLNVLRALHKDGIQAIADWVPDQIYNLPGKEVVNATRVNGYGYHQQGYQIVDQAYVANTRTDGTDYQGKYGGAFLDELKAKYPSIFNRVQISNGKQLPTNEKITKWSAKYFNGTNILGRGINYVLRDDKTNQYFNTSANSQLLPTPLRDTGAITSTQVFQRRGQDVYFLRDNQAVKNEFVQDGNGNWYYFGADGKMTKGAQTINKKDYYFFDNGIQLRNALRRANNGYTYYYGLDGAMVKNAFVDFDDKRKQVRAFTTQG
modifications: T6 C-terminal truncation of GTF4336
B3: GTF0974T4: T4 C-terminal truncation of GTF0974 glucosyltransferase, SEQ ID NO: 128, strain SG1316 (protein)
chain: INGKQYYVNSDGSVRKNFVFEQDGKSYYFDAETGALATKSQDEFSTEPIKATVDFSSGNQLYKNDDKSLDQLDTFITADAWYRPKSILKDGKTWTASTEADKRPLLMVWWPDKSTQVNYLNYMQNQGLGAGSFSTNSSQESLDQAAKAVQTKIEERIAREGNTNWLRTSIDQFIKTQPGWNSSTENSSYDHLQGGQLLFNNSKGDTGNRTSHANSDYRLLNRTPTNQTGTRKYFKDNSIGGLEFLLANDIDNSNPAVQAEQLNWLHFMMNIGSIMANDPTANFDGLRVDALDNVDADLLQIASDYFKAAYGVDKSEANAIKHLSYLEAWSANDPYYNKDTKGAQLPIDNALRNALTNLLMRDKNTRMQLGDMTAFINSSLNPRGANDKNGERMANYIFTRAHDTEAQTIIQRIIRDRINPNLFGYNFTRDEIKKAFEIYNEDIDKAHKTYASYNLPSVYALMLTNKDSVTRVYYGDLYREDGHYMAKKTPYFDAIDTLLRARIKYVAGGQDMEVKKVGNDGLLTSVRYGKGANNRTDLGTSETRTQGMGVIMTNNYDFRLGSNETVTMNMGRAHRNQLYRPLLLTTKDGIATYLNDSDVPKKLLKRTDWNGNLTFNANDVFGVENVQVSGYLGVWVPYGAKANQDARTQPSNRANSDGQVYKSSAALDSQVMYEAFSNFQAFADDQPELYMNRVLAKNTDLLKAWGITSVGLPPQYVSSKDGTFLDSTIDNGYAFDDRYDMALSQNNKYGSLEDLLNVLRALHKDGIQAIADWVPDQIYNLPGKEVVNATRVNGYGNHQVGYQIIDQAYVANTRTDGTDYQGKYGGAFLDELKAKYPSIFNRVQISNGKQLPTNEKITKWSAKYFNGTNILGRGINYVLRDDKTNQYFNTSANSQLLPTPLRDTGAITSTQVFQRRGQDVYFLRDNQAVKNEFVQDGNGNWYYFGGDGKMTKGAQNINNKDYYFFDNGIQLRNALRRASNGYTYYYGLDGAMVKNAFVDFDDKHK
modifications: T4 C-terminal truncation of GTF0974
B4: GTF4991T6: T6 C-terminal truncation of GTF4991, SEQ ID NO: 152, strain SG1312 (protein)
chain: INGKQYYVNSDGSVRKNFVFEQDGKSYYFDAETGALATKSQDEFSTEPIKATVDFSSGNQLYKNDDKSLDQLDTFITADAWYRPKSILKDGKTWTASTEADKRPLLMVWWPDKSTQVNYLNYMQNQGLGAGSFSTNSSQESLDQAAKAVQTKIEERIAREGNTNWLRTSIDQFIKTQPGWNSSTENSSYDHLQGGQLLFNNSKGDTGNRTSHANSDYRLLNRTPTNQTGTRKYFKDNSIGGLEFLLANDIDNSNPAVQAEQLNWLHFMMNIGSIMANDPTANFDGLRVDALDNVDADLLQIASDYFKAAYGVDKSEANAIKHLSYLEAWSANDPYYNKDTKGAQLPIDNALRNALTNLLMRDKNTRMQLGDMTAFINSSLNPRGANDKNGERMANYIFTRAHDTEAQTIIQRIIRDRINPNLFGYNFTRDEIKKAFEIYNEDIDKAHKTYASYNLPSVYALMLTNKDSVTRVYYGDLYREDGHYMAKKTPYFDAIDTLLRARIKYVAGGQDMEVKKVGNDGLLTSVRYGKGANNRTDLGTSETRTQGMGVIMTNNYDFRLGSNETVTMNMGRAHRNQLYRPLLLTTKDGIATYLNDSDVPKNLLKRTDWNGNLTFNANDVFGVENVQVSGYLGVWVPYGAKANQDARTQPSNRANSDGQVYKSSAALDSQVMYEAFSNFQAFADDQPELYMNRVLAKNTDLLKAWGITSVGLPPQYVSSKDGTFLDSIIDNGYAFDDRYDMALSQNNKYGSLEDLLNVLRALHKDGIQAIADWVPDQIYNLPGKEVVNATRVNGYGYHQQGYQIVDQAYVANTRTDGTDYQGKYGGAFLDELKAKYPSIFNRVQISNGKQLPTNEKITKWSAKYFNGTNILGRGINFVLRDDKTNQYFNTSANSQLLPTPLRDTGAITSTQVFQRRGQDVYFLRDNQTVKNEFVQDGNGNWYYFGGDGKMTKGAQNINSKDYYFFDNGVQLRNALRRASNGYTYYYGLDGAMVKNAFVDFDDKHKQVRAFTTQG
modifications: T6 C-terminal truncation of GTF4491
B5: GTF4991T1: T1 C-terminal truncation of GTF4991, SEQ ID NO: 148, strain SG1310 (protein)
chain: INGKQYYVNSDGSVRKNFVFEQDGKSYYFDAETGALATKSQDEFSTEPIKATVDFSSGNQLYKNDDKSLDQLDTFITADAWYRPKSILKDGKTWTASTEADKRPLLMVWWPDKSTQVNYLNYMQNQGLGAGSFSTNSSQESLDQAAKAVQTKIEERIAREGNTNWLRTSIDQFIKTQPGWNSSTENSSYDHLQGGQLLFNNSKGDTGNRTSHANSDYRLLNRTPTNQTGTRKYFKDNSIGGLEFLLANDIDNSNPAVQAEQLNWLHFMMNIGSIMANDPTANFDGLRVDALDNVDADLLQIASDYFKAAYGVDKSEANAIKHLSYLEAWSANDPYYNKDTKGAQLPIDNALRNALTNLLMRDKNTRMQLGDMTAFINSSLNPRGANDKNGERMANYIFTRAHDTEAQTIIQRIIRDRINPNLFGYNFTRDEIKKAFEIYNEDIDKAHKTYASYNLPSVYALMLTNKDSVTRVYYGDLYREDGHYMAKKTPYFDAIDTLLRARIKYVAGGQDMEVKKVGNDGLLTSVRYGKGANNRTDLGTSETRTQGMGVIMTNNYDFRLGSNETVTMNMGRAHRNQLYRPLLLTTKDGIATYLNDSDVPKNLLKRTDWNGNLTFNANDVFGVENVQVSGYLGVWVPYGAKANQDARTQPSNRANSDGQVYKSSAALDSQVMYEAFSNFQAFADDQPELYMNRVLAKNTDLLKAWGITSVGLPPQYVSSKDGTFLDSIIDNGYAFDDRYDMALSQNNKYGSLEDLLNVLRALHKDGIQAIADWVPDQIYNLPGKEVVNATRVNGYGYHQQGYQIVDQAYVANTRTDGTDYQGKYGGAFLDELKAKYPSIFNRVQISNGKQLPTNEKITKWSAKYFNGTNILGRGINFVLRDDKTNQYFNTSANSQLLPTPLRDTGAIT
modifications: T1 C-terminal truncation of GTF4491

Assay: GTF activity of strains (PAHBAH assay)
Format: biochemical
Details: enzyme expressed in B. subtilis host
Method in brief: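 Glucosyltransferase (GTF) activity of the bacterial strains was measured with the PAHBAH assay. The enzymes tested were truncated GTF variants produced in a Bacillus subtilis expression host. Measurements were split across three separate experiments, and each activity value is reported together with the experiment it came from because results varied slightly between experiments.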

Molecule | GTF activity of strains: Acitivity (Experiment Number 1) [U/mL] | GTF activity of strains: Acitivity (Experiment Number 2) [U/mL] | GTF activity of strains: Acitivity (Experiment Number 3) [U/mL]
B1 | 4.9 | – | –
B2 | 28.9 | – | –
B3 | – | 47.2 | 33.9
B4 | 1.7 | – | –
B5 | 23.1 | – | –
